Assay results from the supplement of paper PMC12042874.
± gives the uncertainty stated by the source.

Experiments:
[1] = amyloid nucleation score (Sup35N fusion, yeast selection) (log enrichment); library NNK1; higher = more nucleation; inactive = no reads after selection
In short: (§1)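 Sup35N was fused to peptides of 20 random codons and expressed in psi-negative yeast, which were induced with 100 μM copper sulfate for 24 hours and then grown on medium lacking adenine and uracil for 7 days at 30°C. Plasmid inserts from input and output were sequenced on Illumina. The nucleation score is the DiMSum log enrichment of output over input reads, centred on the mode score of non-aggregating sequences. Sequences with under 100 input reads were left out, and random libraries had three technical output replicates.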

[2] = amyloid nucleation score (Sup35N fusion, yeast selection) (log enrichment); library NNK2; higher = more nucleation; inactive = no reads after selection
In short: as §1

[3] = amyloid nucleation score (Sup35N fusion, yeast selection) (log enrichment); library NNK3; higher = more nucleation; inactive = no reads after selection
In short: as §1

| Substance | amyloid nucleation score [1] | amyloid nucleation score [2] | also measured |
| --- | --- | --- | --- |
| AAFTSSNYMFGFYFGLWVSN | 1.55 ± 0.45 | – | – |
| AANGCASSV | -0.856 ± 0.44 | – | – |
| AASKIIENIGHLC | -0.337 ± 0.52 | – | – |
| ACANLKSGIFKRFFTSCSGT | -0.959 ± 0.65 | – | – |
| ACDVVIRTWITKDTKGFYRA | 0.488 ± 0.29 | – | – |
| ACEELVQIVVYCDSFMFSPS | 1.46 ± 0.52 | – | – |
| ACEKLQVNW | 0.329 ± 0.35 | – | – |
| ACHCNIFFHR | 6.325 ± 0.058 | – | – |
| ACKCAFSGFSYVAFGPVMGG | -1.61 ± 1.9 | – | – |
| ACLCVIRMFHYNGLRH | 0.576 ± 0.76 | – | – |
| ACSCDALRSNLAIIKRESRV | -0.766 ± 2.4 | – | – |
| ACSPGTVVKDITDTSK | 0.45 ± 0.63 | – | – |
| ACWLAKHKEYRLSGHVQEFD | 0.035 ± 0.52 | – | – |
| ADCFNLYGRTFDKFKPPHMD | 0.631 ± 0.54 | – | – |
| ADNRVQRYTDPFLGSVSMYK | 0.563 ± 0.49 | – | – |
| ADPLMI | -0.163 ± 0.28 | – | – |
| ADRWVLSFMEPCAT | inactive | – | – |
| ADSLSDELFDYKTYIAVKSF | -0.645 ± 0.27 | – | – |
| ADTLFPLDHPVINFSPFIVL | 5.789 ± 0.05 | – | – |
| ADVQWRHRTGISSSIVRSGA | 0.822 ± 1 | – | – |
| AEHLICLGYGQRWGNYTGLP | 0.164 ± 0.62 | – | – |
| AENITGWVVPIVVTLTASAR | -0.163 ± 0.29 | – | – |
| AERPSLYWLKLRKRRITVV | 0.46 ± 1.2 | – | – |
| AEYCSNVGMSLYFLWSKPMQ | 1.89 ± 0.18 | – | – |
| AFEFKRLRIACVNDGQINLG | 2.43 ± 0.42 | – | – |
| AFGAVFRGEKR | 0.241 ± 1.4 | – | – |

| Substance | amyloid nucleation score [1] | amyloid nucleation score [2] | also measured |
| --- | --- | --- | --- |
| AFGVYRVCLVWVHL | 0.232 ± 0.49 | – | – |
| AFIARVTRFGVTRDPLIRQ | inactive | – | – |
| AFIDDRAVTCCYQTVLLCER | -0.341 ± 0.48 | – | – |
| AFLRVIDQQLRLEIHIIMKL | inactive | – | – |
| AFNRSKQSIKAFSA | -0.369 ± 1.2 | – | – |
| AFNYRSVCWLLGTGSSSWSE | inactive | – | – |
| AFPRARGYMG | -0.575 ± 0.37 | – | – |
| AFRCCMFAFVFCSSGDSRAE | 7.392 ± 0.056 | – | – |
| AFRIFPHL | inactive | – | – |
| AFRSRFVIFHDGIRVLGYAD | -1.13 ± 2.1 | – | – |
| AFTGQCEEKIS | -0.226 ± 0.42 | – | – |
| AFTPSWRTRLQMTTL | -0.386 ± 0.57 | – | – |
| AFWFMCWGMTRTRYV | 2.73 ± 0.11 | – | – |
| AFYRAFTPCISVPIRND | 0.765 ± 0.46 | – | – |
| AFYWLHLDGFLQLNQQMSVA | 0.992 ± 0.7 | – | – |
| AGGVKSCTKRFN | -0.232 ± 1.5 | – | – |
| AGLPRSGSIQRDYREKVWAA | -0.194 ± 1.3 | – | – |
| AGLVYEIKWYYADL | -0.482 ± 0.33 | – | – |
| AHRPGMFFRNYVVGDLS | -0.026 ± 0.48 | – | – |
| AHYRRVSVAQTHWMADPFGR | 0.976 ± 0.36 | – | – |
| AIALQV | -1.18 ± 0.94 | – | – |
| AIIDDHSVCYNVLKRFSNFG | 1.5 ± 0.66 | – | – |
| AIIERADLSGMPLFSGFPGD | -0.148 ± 0.8 | – | – |
| AKDFIGQSC | 0.688 ± 0.45 | – | – |
| AKELDNGIYFMKLWLREELE | -0.743 ± 1.2 | – | – |
| AKLAS | 0.151 ± 0.59 | – | – |

| Substance | amyloid nucleation score [1] | amyloid nucleation score [2] | also measured |
| --- | --- | --- | --- |
| AKSLVDRKRVDNPWRFSVGW | 0.297 ± 0.51 | – | – |
| AKSWCVSIKLVSDNSYLWET | 1.12 ± 0.14 | – | – |
| ALDQN | -0.412 ± 0.78 | – | – |
| ALDVARDKDVILYEFQLELR | 0.366 ± 0.72 | – | – |
| ALGVHR | 1.76 ± 0.61 | – | – |
| ALGYGIWGSICNWVWDPFTA | inactive | – | – |
| ALLCFLWCRMYGTFSTSCVL | 0.315 ± 0.85 | – | – |
| ALLIAY | -0.992 ± 0.59 | – | – |
| ALLWQECYMP | 2.26 ± 0.17 | – | – |
| ALMRLTRNSMSFWRQ | -0.17 ± 0.36 | – | – |
| ALPAMTQDKWHMNALRNYLD | 1.48 ± 0.81 | – | – |
| ALPCYCPPVQSPCASFGWME | -0.569 ± 0.29 | – | – |
| ALRGVRVMWAKRS | -0.484 ± 0.88 | – | – |
| ALSSNVGSMAFSR | -0.06 ± 0.88 | – | – |
| ALTIDRCRAESYLRRLTFLL | -0.653 ± 0.4 | – | – |
| ALWNYAVNSTLWWGLGYGWR | 0.052 ± 0.41 | – | – |
| ANMCISGAYNCVSVLCLRNR | 6.59 ± 0.047 | – | – |
| APHWLLRDPIESTADNDVYY | 2.73 ± 0.44 | – | – |
| APSLVVRPSFGGLRTRVVYP | 0.44 ± 0.58 | – | – |
| APVFYIPIMFSQLFGLAQIY | 6.935 ± 0.06 | – | – |
| AQSALLKS | -1.22 ± 1.2 | – | – |
| ARAFPNMPPVLILILHLRLY | 0.961 ± 0.35 | – | – |
| LTLLR | – | -0.122 ± 0.42 | amyloid nucleation score [3]: inactive |
| YSSFIDNHFAVRR | – | -0.448 ± 0.49 | – |
| YSSNMASALSYICDPMIFNF | – | -0.703 ± 0.56 | – |
| YSSSSSTYNAWFSMPESHEL | – | 0.264 ± 0.15 | – |

| Substance | amyloid nucleation score [1] | amyloid nucleation score [2] | also measured |
| --- | --- | --- | --- |
| YSSSVMPRRSDRVRT | – | 0.139 ± 0.63 | – |
| YSSVSR | – | -1.05 ± 0.55 | – |
| YSTFSGH | – | 0.806 ± 0.27 | – |
| YSTRRLGHLMC | – | -0.381 ± 0.79 | – |
| YSVSSMVKPMIICCNSVNC | – | 8.344 ± 0.051 | – |
| YSVTLGGWIREQSLQLSTSS | – | 0.768 ± 0.46 | – |
| YSYKFAAVSMIWVYPCEHTS | – | 1.71 ± 0.18 | – |
| YSYVGFIF | – | 1.49 ± 0.32 | – |
| YSYVVNLLTYTRSECKMLV | – | 5.738 ± 0.035 | – |
| YTDISCVLLGLG | – | -1.76 ± 0.78 | – |
| YTDLG | – | 0.563 ± 0.44 | – |
| YTEGAWVRVSDYRE | – | -0.565 ± 0.29 | – |
| YTFKYLSRMYLHYSVKGMWL | – | 0.325 ± 0.8 | – |
| YTLNPGFHHRFCVWTA | – | inactive | – |
| YTMMRFGPPPFETFVVKYGL | – | 1.42 ± 0.35 | – |
| YTNVVYNYLRSCCGAWYGQR | – | 9.015 ± 0.068 | – |
| YTQAYILVLIVLLLLSVMVI | – | 5.638 ± 0.054 | – |
| YTTRSVMVSCGYCR | – | -0.29 ± 0.27 | – |
| YTTYGHTSHLTLYPYTPRMM | – | 0.123 ± 0.74 | – |
| YTVGRGSR | – | 0.794 ± 0.6 | – |
| YVENTGASCFGAYK | – | 2.25 ± 0.11 | – |
| YVITSSPSLYACICSGVSVR | – | 4.87 ± 0.1 | – |
| YVIVTDFYYNMVRVVFVRMA | – | 0.228 ± 1 | – |
| YVKLCSRRDGT | – | -0.352 ± 0.18 | – |
| YVRMMTNSTLLGRGLKYLCV | – | 0.429 ± 0.62 | – |
| YVSWRTNGLMSTCDFLTRQT | – | 0.719 ± 0.23 | – |

| Substance | amyloid nucleation score [1] | amyloid nucleation score [2] | also measured |
| --- | --- | --- | --- |
| YVVVLNWNSHCSKYYELRQE | – | 8.402 ± 0.05 | – |
| YVYMSYPYIILLFHYMSSDW | – | inactive | – |
| YVYSVYNFLRVLICAGTG | – | 6.185 ± 0.037 | – |
| YVYVDYWICTIWCVLCNLCS | – | 0.256 ± 1 | – |
| YWANMVG | – | -0.328 ± 0.48 | – |
| YWFFCGRWK | – | 4.7 ± 0.11 | – |
| YWPLVIFLAWPMKYFVLEVM | – | -0.417 ± 0.43 | – |
| YWSCTMRVFRVTLNCSNS | – | 3.44 ± 0.066 | – |
| YWSETCLSMGENEHFNSWKI | – | inactive | – |
| YWVFMNSRLVAIGPANALVV | – | -0.69 ± 1.1 | – |
| YWVLQNYHLYCLYKSKSRNW | – | -0.403 ± 0.4 | – |
| YYAGADFEGNSCGDSIPACR | – | -0.208 ± 1.1 | – |
| YYFMVL | – | 0.656 ± 0.35 | – |
| YYLICST | – | 0.023 ± 0.47 | – |
| YYLVYKAGKMLIEYHKSYNW | – | -1.1 ± 1 | – |
| YYLYWHFKIYWRQHLVNAFN | – | -1 ± 1.1 | – |
| YYMVSP | – | -0.093 ± 0.33 | – |
| YYNIQLSFVDMVLMYYDESM | – | 4.443 ± 0.04 | – |
| YYRYPYTLKCPGGLQERQHL | – | -0.028 ± 0.76 | – |
| YYSCPASLLFNTGLPVKYSW | – | -1.26 ± 0.36 | – |
| YYSLLLGSTKSVAN | – | -0.038 ± 0.33 | – |
| YYTFFNKRYNRWCMMNLNLT | – | inactive | – |
| YYTPRWCFAYVSRLVWFLLP | – | inactive | – |
